# Experimental data from patent publication US7858756B2, “Monoclonal antibodies that selectively recognize methamphetamine and methamphetamine like compounds” (The Board of Trustees of the University of Arkansas, priority 2006, dated 2010).
# Positions count from the first letter of the chain named. Entries after “also recorded” stand apart in the source; their conditions may differ.
# B1: mAb4G9: monoclonal antibody, IgG2b κ, heavy chain SEQ ID NO:25, light chain SEQ ID NO:26, generated against hapten (+)METH MO10-ovalbumin (antibody, listed as Mus musculus)
# heavy: EYQLQQSGTVLARPGASVKMSCKASGYTFTSYWMHWVKQRPGQGLEWIGGIYPGNSDTTYNQKFKGKAKLTAVTSTSTAYMELSSLTNEDSAVYYCLYGNYDFDYWGQGTTLTVSSAKTTPPSVYPLAPGCGDTTGSSVTLGCLVKGYFPESVTVTWNSGSLSSSVHTFPALLQSGLYTMSSSVTVPSSTWPSQTVTCSVAHPASSTTVDKKLEPSGPISTINPCPPCKECHKCPAPNLEGGPSVFIFPPNIKDVLMISLTPKVTCVVVDVSEDDPDVQISWFVNNVEVHTAQTQTHREDYNSTIRVVSTLPIQHQDWMSGKEFKCKVNNKDLPSPIERTISKIKGLVRAPQVYILPPPAEQLSRKDVSLTCLVVGFNPGDISVEWTSNGHTEENYKDTAPVLDSDGSYFIYSKLNMKTSKWEKTDSFSCNVRHEGLKNYYLKKTISRSPGK
# light: DVQMTQSPSSLSASLGGKVTITCKASQDINKFIAWYQHKPGKGPRLLIHYTSTLQPGIPSRFSGSGSGRDYSFSISNLEPEDIATYYCLQYANLLPWTFGGGTKLEIKRADAAPTVSIFPPSSEQLTSGGASVVCFLNNFYPKDINVKWKIDGSERQNGVLNSWTDQDSKDSTYSMSSTLTLTKDEYERHNSYTCEATHKTSTSPIVKSFNRNEC
# B2: mAb2F11: monoclonal antibody comprising heavy chain SEQ ID NO:19 and light chain SEQ ID NO:21 (antibody, listed as Mus musculus)
# heavy: EYQLQQSGTVLARPGASVKMSCKASGYTFTNYWMHWVKQRPGQGLEWIGGIYPGNSDTTYNQKFKGKAKLTAVTSTSTAYMELSSLTNEDSAVYYCLYGNYDFDYWGQGTTLTVSSAKTTAPSVYPLAPVCGDTTGSSVTLGCLVKGYFPEPVTLTWNSGSLSSGVHTFPAVLQSDLYTLSSSVTVTSSTWPSQSITCNVAHPASSTKVDKKIEPRGPTIKPCPPCKCPAPNLLGGPSVFIFPPKIKDVLMISLSPIVTCVVVDVSEDDPDVQISWFVNNVEVHTAQTQTHREDYNSTLRVVSALPIQHQDWMSGKEFKCKVNNKDLPAPIERTISKPKGSVRAPQVYVLPPPEEEMTKKQVTLTCMVTDFMPEDIYVEWTNNGKTELNYKNTEPVLDSDGSYFMYSKLRVEKKNWVERNSYSCSVVHEGLHNHHTTKSFSRTPGK
# light: B1 light with V2I, Q27H, I29V, A92T
# How the values were obtained:
# [1] = METH infusion by sc osmotic minipump, serum and brain METH and AMP concentrations after mAb; type: in vivo, rat; details: for AMP serum concentrations vs pre-mAb levels / METH serum concentrations vs pre-mAb levels: rat serum, 1 min to 24 hr after mAb, FIG. 7
# Protocol: FIG. 7 depicts two graphs showing the effect of mAb6H4 (Panel A) and mAb4G9 (Panel B) on METH (closed circles) and AMP (open circles) concentrations in rat serum. METH was infused using a subcutaneous osmotic minipump and once steady state concentrations were reached, anti-METH mAb was administered. Rats were sacrificed at various time points for determination of serum METH and AMP concentrations.
# FIG. 8 depicts two graphs showing the effect of mAb6H4 (Panel A) and mAb4G9 (Panel B) on METH (closed circles) and AMP (open circles) concentrations in the rat brain. METH was infused using a subcutaneous osmotic minipump and once steady state concentrations were reached, anti-METH mAb was administered. Rats were sacrificed at various time points for determination of brain METH and AMP concentrations. One way ANOVA followed by a Dunnett's test was used to compare control and post-mAb METH and AMP values.
# [2] = (+)AMP self-administration, fixed interval (60 sec) paradigm; type: in vivo, rats; details: 100 mg/kg mAb, 0.03 mg/kg (+)AMP per infusion
# Protocol: (§1) FIG. 6 presents graphs depicting the effect of mAb4G9 on METH discrimination (Panel A) and AMP self-administration (Panel B) in rats. (A) Rats were trained to discriminate […] and METH and then administered mAb4G9. Drug discrimination dose response curves were then determined for METH. (B) (+)AMP self-administration before and after treatment with mAb4G9 (3-4 rats/time point). Dashed lines are used to show the groupings of responding for (+)AMP before and after mAb. *P<0.05 compared to control group before antibody (open circles).
# We also tested the ability of mAb4G9 to block (+)AMP self-administration in a model in which rats responded under a fixed interval (60 sec) paradigm for a dose of 0.03 mg/kg (+)AMP per infusion.
# [3] = Functional half-life study, 14-day continuous (+)METH infusion, serum concentrations; type: in vivo, rats
# Protocol: The best-fit line was determined using a weighted two-compartment pharmacokinetic model.
# Serum samples were collected pre-mAb and at time points after mAb administration.
# [4] = RIA, inhibition of [3H]-(+)METH binding to mAb; details: RIA IC50 for METH / RIA IC50 for test ligand
# Text: In reference to (+)methamphetamine, the IC50 ratio refers to the ratio of the IC50 for (+)methamphetamine in the presence of labeled (+)methamphetamine to the IC50 for a test ligand in the presence of labeled (+)methamphetamine. The IC50 value is the concentration of test ligand required to inhibit 50% of the labeled (+)methamphetamine binding. For instance, see Table 2 in the Examples.
# Determination of immunochemical specificity.
# [5] = METH drug discrimination model; type: in vivo, rats; details: 600 mg/kg mAb
# Protocol: as §1
# The in vivo effects of mAb4G9 were examined using a drug discrimination model. mAb4G9 appeared to be an effective and long-lasting antagonist of METH effects in this model (FIG. 6A). The mAb4G9 (600 mg/kg) shifted the dose response curves for at least 7 days. On the first and second day after mAb treatment, the dose response curve was shifted about 4- to 6-fold. When tested again at 7 days after mAb4G9 treatment, the dose response curve was still shifted about 2.5 fold.
# [6] = (+)METH 5.6 mg/kg/day sc minipump, single mAb dose equimolar to body burden
molecule,measurement,setting,value
B1,AMP brain concentrations vs no mAb group,"[1]; rat brain, FIG. 8",reduces both METH and AMP concentrations in the brain; also recorded: significantly decreased at the 5 and 30 min time points
same,METH brain concentrations vs no mAb group,"[1]; rat brain, FIG. 8",reduces both METH and AMP concentrations in the brain; also recorded: significantly decreased METH brain concentrations at all time points
same,AMP serum concentrations vs pre-mAb levels,[1],repartitions AMP into the serum from other compartments; also recorded: maintains significantly elevated serum METH and AMP concentrations 24 h after administration
same,METH serum concentrations vs pre-mAb levels,[1],maintains significantly elevated serum METH and AMP concentrations 24 h after administration
same,AMP serum concentrations vs pre-mAb levels,[1]; listed as MAb4G9,significantly increased METH and AMP serum concentrations from 1 min to 24 hrs
same,METH serum concentrations vs pre-mAb levels,[1]; listed as MAb4G9,significantly increased METH and AMP serum concentrations from 1 min to 24 hrs
same,number of (+)AMP injections per session,[2],significantly reduced
same,serum (+)AMP concentrations compared with pre-mAb,[3]; [6],maintained significantly increased concentrations
same,serum (+)METH concentrations compared with pre-mAb,[3]; [6],maintained significantly increased concentrations
same,time after which mAb still very effective,"[3]; continuous (+)METH infusion, single mAb dose",about 2 wks
same,"Antibody Specificity (IC50 ratio as percent), 4-OH-METH",[4],10.6%
same,"Antibody Specificity (IC50 ratio as percent), (+)AMP",[4],34%
same,"Antibody Specificity (IC50 ratio as percent), (+)MDA",[4],9.0%
same,"Antibody Specificity (IC50 ratio as percent), (+)MDMA",[4],29%
same,"Antibody Specificity (IC50 ratio as percent), (+)METH",[4],100%
same,"Antibody Specificity (IC50 ratio as percent), (+)ephedrine",[4],<0.1%
same,"Antibody Specificity (IC50 ratio as percent), (+)norpseudoephedrine",[4],<0.1%
same,"Antibody Specificity (IC50 ratio as percent), (+)phenylpropanolamine",[4],<0.1%
same,"Antibody Specificity (IC50 ratio as percent), (+)pseudoephedrine",[4],0.4%
same,"Antibody Specificity (IC50 ratio as percent), (−)AMP",[4],6.3%
same,"Antibody Specificity (IC50 ratio as percent), (−)MDA",[4],0.2%
same,"Antibody Specificity (IC50 ratio as percent), (−)MDMA",[4],1.1%
same,"Antibody Specificity (IC50 ratio as percent), (−)METH",[4],10.2%
same,"Antibody Specificity (IC50 ratio as percent), /-phenylphrine",[4],<0.1%
same,"Antibody Specificity (IC50 ratio as percent), dopamine",[4],<0.1%
same,"Antibody Specificity (IC50 ratio as percent), epinephrine",[4],<0.1%
same,"Antibody Specificity (IC50 ratio as percent), norepinepherine",[4],<0.1%
same,"Antibody Specificity (IC50 ratio as percent), serotonin",[4],<0.1%
same,"Antibody Specificity (IC50 ratio as percent), tyramine",[4],<0.1%
same,"Antibody Specificity (IC50 ratio as percent), β-phenylethylamine",[4],0.1%
same,duration of shift of dose response curves,[5],at least 7 days
same,shift of METH dose response curve,[5]; 7 days after treatment,about 2.5 fold
B2,"Antibody Specificity (IC50 ratio as percent), (+)AMP",[4],33%
same,"Antibody Specificity (IC50 ratio as percent), (+)MDMA",[4],41%
same,"Antibody Specificity (IC50 ratio as percent), (+)METH",[4],100%^
same,"Antibody Specificity (IC50 ratio as percent), (−)AMP",[4],5.3%
same,"Antibody Specificity (IC50 ratio as percent), (−)MDMA",[4],0.6%
same,"Antibody Specificity (IC50 ratio as percent), (−)METH",[4],2.2%
